In patent publication US20180155451A1 (published 2018):

T1: FcγRIIa R (human, UniProt P12318 34-217)
T1 construct: extracellular domain; also called FcgRIIa R type; 2aR
T1 sequence (looked up): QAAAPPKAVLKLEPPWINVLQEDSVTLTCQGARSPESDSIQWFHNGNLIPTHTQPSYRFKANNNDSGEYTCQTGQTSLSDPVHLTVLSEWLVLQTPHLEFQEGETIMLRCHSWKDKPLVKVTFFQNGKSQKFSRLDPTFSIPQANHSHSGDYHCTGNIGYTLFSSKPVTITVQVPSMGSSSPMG

B1: GpH7-A5/GpH7-B3 variant Q295_02A/GpL16-k0 (antibody, human IgG1, kappa)
heavy 1: not shown
heavy 2: not shown
light: DIVMTQSPLSLPVTPGEPASISCQASESLVHSNRNTYLHWYLQKPGQSPQLLIYKVSNRFSGVPDRFSGSGSGTDFTLKISRVEAEDVGVYYCSQNTHVPPTFGQGTKVEIERTVAAPSVFIFPPSDEQLKSGTASVVCLLNNFYPREAKVQWKVDNALQSGNSQESVTEQDSKDSTYSLSSTLTLSKADYEKHKVYACEVTHQGLSSPVTKSFNRGEC
notes: heterodimerized; also called He Ab Q295_02A
B2: GpH7-A5/GpH7-B3 variant H268_15Y/GpL16-k0 (antibody, human IgG1, kappa)
heavy 1: not shown
heavy 2: not shown
light: B1 light
notes: also called He Ab H268_15Y
B3: GpH7-A5/GpH7-B3 variant E333_04F/GpL16-k0 (antibody, human IgG1, kappa)
heavy 1: not shown
heavy 2: not shown
light: B1 light
notes: also called He Ab E333_04F
B4: GpH7-A5/GpH7-B3 variant H268_03V/GpL16-k0 (antibody, human IgG1, kappa)
heavy 1: not shown
heavy 2: not shown
light: B1 light
notes: also called He Ab H268_03V
B5: GpH7-A5/GpH7-B3 variant G237_18N/GpL16-k0 (antibody, human IgG1, kappa)
heavy 1: not shown
heavy 2: not shown
light: B1 light
notes: also called He Ab G237_18N
B6: GpH7-A5/GpH7-B3 variant E333_15Y/GpL16-k0 (antibody, human IgG1, kappa)
heavy 1: not shown
heavy 2: not shown
light: B1 light
notes: also called He Ab E333_15Y
B7: GpH7-A5/GpH7-B3 variant E333_08L/GpL16-k0 (antibody, human IgG1, kappa)
heavy 1: not shown
heavy 2: not shown
light: B1 light
notes: also called He Ab E333_08L
B8: GpH7-A5/GpH7-B3 variant E333_09D/GpL16-k0 (antibody, human IgG1, kappa)
heavy 1: not shown
heavy 2: not shown
light: B1 light
notes: also called He Ab E333_09D
B9: GpH7-A5/GpH7-B3 variant G237_15Y/GpL16-k0 (antibody, human IgG1, kappa)
heavy 1: not shown
heavy 2: not shown
light: B1 light
notes: also called He Ab G237_15Y
B10: GpH7-A5/GpH7-B3 variant G237_06M/GpL16-k0 (antibody, human IgG1, kappa)
heavy 1: not shown
heavy 2: not shown
light: B1 light
notes: also called He Ab G237_06M
B11: GpH7-A5/GpH7-B3 variant P271_04F/GpL16-k0 (antibody, human IgG1, kappa)
heavy 1: not shown
heavy 2: not shown
light: B1 light
notes: heterodimerized; also called He Ab P271_04F
B12: GpH7-A5/GpH7-B3 variant G236_14T/GpL16-k0 (antibody, human IgG1, kappa)
heavy 1: not shown
heavy 2: not shown
light: B1 light
notes: also called He Ab G236_14T
B13: GpH7-A5/GpH7-B3 variant H268_01G/GpL16-k0 (antibody, human IgG1, kappa)
heavy 1: not shown
heavy 2: not shown
light: B1 light
notes: also called He Ab H268_01G
B14: GpH7-A5/GpH7-B3 variant I336_06M/GpL16-k0 (antibody, human IgG1, kappa)
heavy 1: not shown
heavy 2: not shown
light: B1 light
notes: also called He Ab I336_06M
B15: GpH7-A5/GpH7-B3 variant I332_06M/GpL16-k0 (antibody, human IgG1, kappa)
heavy 1: not shown
heavy 2: not shown
light: B1 light
notes: also called He Ab I332_06M
B16: GpH7-A5/GpH7-B3 variant P271_20W/GpL16-k0 (antibody, human IgG1, kappa)
heavy 1: not shown
heavy 2: not shown
light: B1 light
notes: heterodimerized; also called He Ab P271_20W
B17: GpH7-A5/GpH7-B3 variant P271_12R/GpL16-k0 (antibody, human IgG1, kappa)
heavy 1: not shown
heavy 2: not shown
light: B1 light
notes: heterodimerized; also called He Ab P271_12R
B18: GpH7-A5/GpH7-B3 variant P271_13S/GpL16-k0 (antibody, human IgG1, kappa)
heavy 1: not shown
heavy 2: not shown
light: B1 light
notes: heterodimerized; also called He Ab P271_13S
B19: GpH7-A5/GpH7-B3 variant E333_07I/GpL16-k0 (antibody, human IgG1, kappa)
heavy 1: not shown
heavy 2: not shown
light: B1 light
notes: also called He Ab E333_07I
B20: GpH7-A5/GpH7-B3 variant I336_08L/GpL16-k0 (antibody, human IgG1, kappa)
heavy 1: not shown
heavy 2: not shown
light: B1 light
notes: also called He Ab I336_08L
B21: GpH7-A5/GpH7-B3 variant A330_19Q/GpL16-k0 (antibody, human IgG1, kappa)
heavy 1: not shown
heavy 2: not shown
light: B1 light
notes: also called He Ab A330_19Q
B22: GpH7-A5/GpH7-B3 variant A330_12R/GpL16-k0 (antibody, human IgG1, kappa)
heavy 1: not shown
heavy 2: not shown
light: B1 light
notes: also called He Ab A330_12R
B23: GpH7-A5/GpH7-B3 variant K326_08L/GpL16-k0 (antibody, human IgG1, kappa)
heavy 1: not shown
heavy 2: not shown
light: B1 light
notes: also called He Ab K326_08L
B24: GpH7-A5/GpH7-B3 variant P271_03V/GpL16-k0 (antibody, human IgG1, kappa)
heavy 1: not shown
heavy 2: not shown
light: B1 light
notes: heterodimerized; also called He Ab P271_03V
B25: GpH7-A5/GpH7-B3 variant P238_15Y/GpL16-k0 (antibody, human IgG1, kappa)
heavy 1: not shown
heavy 2: not shown
light: B1 light
notes: heterodimerized; also called He Ab P238_15Y
B26: GpH7-A5/GpH7-B3 variant P271_07I/GpL16-k0 (antibody, human IgG1, kappa)
heavy 1: not shown
heavy 2: not shown
light: B1 light
notes: heterodimerized; also called He Ab P271_07I
B27: GpH7-A5/GpH7-B3 variant A330_11K/GpL16-k0 (antibody, human IgG1, kappa)
heavy 1: not shown
heavy 2: not shown
light: B1 light
notes: also called He Ab A330_11K
B28: GpH7-A5/GpH7-B3 variant G237_08L/GpL16-k0 (antibody, human IgG1, kappa)
heavy 1: not shown
heavy 2: not shown
light: B1 light
notes: also called He Ab G237_08L
B29: GpH7-A5/GpH7-B3 variant G237_10E/GpL16-k0 (antibody, human IgG1, kappa)
heavy 1: not shown
heavy 2: not shown
light: B1 light
notes: also called He Ab G237_10E

Experiments:
FcγRIa = molecular target: T2, FcγRIa (human, UniProt P12314 16-292); experiment: SPR; vs GpH7-A5/GpH7-B3/GpL16-k0=100
T2 construct: extracellular domain; also called FcgRI; CD64
T2 sequence (P12314 16-292): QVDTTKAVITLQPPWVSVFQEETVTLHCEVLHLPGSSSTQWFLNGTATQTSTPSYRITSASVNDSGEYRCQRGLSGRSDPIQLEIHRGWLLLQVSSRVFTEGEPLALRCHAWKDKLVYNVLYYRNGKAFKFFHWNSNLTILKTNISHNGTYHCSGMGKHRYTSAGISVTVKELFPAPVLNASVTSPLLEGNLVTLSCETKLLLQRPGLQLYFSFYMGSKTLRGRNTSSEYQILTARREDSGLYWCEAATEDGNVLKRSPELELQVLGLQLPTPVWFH

FcγRIIa R = molecular target: T1, FcγRIIa R; experiment: SPR Biacore; vs GpH7-A5/GpH7-B3/GpL16-k0 =100

Row | Binder | He/Con_1a (FcγRIa) | He/Con_2aR (FcγRIIa R)
1 | B1 | 104 % of control | –
2 | B2 | – | 110 % of control
3 | B3 | – | 102 % of control
4 | B4 | – | 109 % of control
5 | B5 | – | 150 % of control
6 | B6 | – | 101 % of control
7 | B7 | – | 103 % of control
8 | B8 | – | 103 % of control
9 | B9 | – | 129 % of control
10 | B10 | – | 133 % of control
11 | B11 | 102 % of control | –
12 | B12 | – | 103 % of control
13 | B13 | – | 124 % of control
14 | B14 | – | 106 % of control
15 | B15 | – | 109 % of control
16 | B16 | 103 % of control | –
17 | B17 | 102 % of control | –
18 | B18 | 102 % of control | –
19 | B19 | – | 104 % of control
20 | B20 | – | 110 % of control
21 | B21 | – | 104 % of control
22 | B22 | – | 104 % of control
23 | B23 | – | 137 % of control
24 | B24 | 102 % of control | –
25 | B25 | 101 % of control | –
26 | B26 | 102 % of control | –
27 | B27 | – | 110 % of control
28 | B28 | – | 133 % of control
29 | B29 | – | 116 % of control
